Laboratory results: patent US20150315292A1 (VANDERBILT UNIVERSITY, published 2015)

Assays:
[1] = target: T1, human fXII with the kringle domain replaced with the corresponding domain from HGFA (human, UniProt P00748 20-216; Q04756 286-367; P00748 296-615, limits assumed); assay: Western blot after SDS-PAGE
T1 construct: Expressed in human fibroblasts (HEK293) and blotted from conditioned medium; also called fXII/HGFA kringle domain chimera; KNG
T1 sequence (looked up): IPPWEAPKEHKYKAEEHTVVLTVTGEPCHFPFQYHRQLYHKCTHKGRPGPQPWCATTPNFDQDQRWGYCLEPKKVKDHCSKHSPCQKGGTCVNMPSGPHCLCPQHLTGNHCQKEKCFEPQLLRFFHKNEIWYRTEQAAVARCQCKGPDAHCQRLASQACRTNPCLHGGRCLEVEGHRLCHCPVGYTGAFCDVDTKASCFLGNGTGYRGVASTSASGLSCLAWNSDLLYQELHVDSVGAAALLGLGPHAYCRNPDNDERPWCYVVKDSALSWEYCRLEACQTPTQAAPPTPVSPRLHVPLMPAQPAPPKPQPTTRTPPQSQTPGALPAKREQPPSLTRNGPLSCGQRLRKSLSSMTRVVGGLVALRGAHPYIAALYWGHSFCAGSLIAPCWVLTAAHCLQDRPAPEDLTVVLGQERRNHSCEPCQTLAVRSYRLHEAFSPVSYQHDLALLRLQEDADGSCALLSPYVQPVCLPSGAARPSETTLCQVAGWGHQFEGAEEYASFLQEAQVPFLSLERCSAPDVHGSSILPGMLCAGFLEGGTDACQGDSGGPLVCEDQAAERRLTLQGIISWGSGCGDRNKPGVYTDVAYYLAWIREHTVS
Description: (§1) AB043 and AB042 both recognize baboon and human fXII, indicating they can be used for studies in baboon thrombosis models. […] Chimeras in which individual fXII domains were replaced with those of HGFA were expressed in human fibroblasts.

[2] = target: T2, human fXII with the EGF2 domain replaced with the corresponding domain from HGFA (human, UniProt P00748 20-173; Q04756 241-279; P00748 211-615, limits assumed); assay: Western blot after SDS-PAGE
T2 construct: Expressed in human fibroblasts (HEK293) and blotted from conditioned medium; also called fXII/HGFA chimera for the EGF2 domain
T2 sequence (looked up): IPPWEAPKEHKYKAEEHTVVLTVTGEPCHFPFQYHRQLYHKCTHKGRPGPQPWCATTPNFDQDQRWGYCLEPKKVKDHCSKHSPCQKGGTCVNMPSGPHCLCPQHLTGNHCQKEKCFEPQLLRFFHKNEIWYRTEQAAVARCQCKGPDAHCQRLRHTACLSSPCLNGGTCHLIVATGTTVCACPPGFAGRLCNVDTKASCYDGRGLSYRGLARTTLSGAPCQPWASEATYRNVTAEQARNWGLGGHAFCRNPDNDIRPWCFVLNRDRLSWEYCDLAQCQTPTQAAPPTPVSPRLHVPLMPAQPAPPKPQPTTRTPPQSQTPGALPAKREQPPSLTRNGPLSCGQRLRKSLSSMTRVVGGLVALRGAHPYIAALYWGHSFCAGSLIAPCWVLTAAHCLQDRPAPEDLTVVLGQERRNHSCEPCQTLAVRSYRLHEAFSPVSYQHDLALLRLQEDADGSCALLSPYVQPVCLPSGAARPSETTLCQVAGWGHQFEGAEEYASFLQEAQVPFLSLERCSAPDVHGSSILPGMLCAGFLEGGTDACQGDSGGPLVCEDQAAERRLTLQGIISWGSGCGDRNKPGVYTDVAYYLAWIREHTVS
Description: as §1

B1: monoclonal anti-human fXII antibody AB042 (antibody, V domains shown)
VH: EVQLQQSGAELVRPGASVKLSCTASGFNIKDDYMHWVKQRPEQGLEWIGWIDPENGDTEYASKFQGKATITSDTSSNTAYLQLSSLTSEDTAVYYCTENYYGSSFFAYWGQGTLVTVSA
VL: DIVMTQATPSVPVTPGESVSISCRSSKSLLHSNGITYLYWFLQRPGQSPQRLIYYMSNLASGVPDRFSGRGSGTDFTLRISRVEAEDVGVYYCMQSLEYPYTFGGGTKLEIKR
notes: Mouse hybridoma IgG raised in fXII knockout mice immunized with human fXII
Does B1 bind [1]?
Result: no binding

Does B1 bind [2]?
Result: no binding
